We go through four molecules from publication PMC7530888 (Nucleic Acids Research, 2020).

The chains are these.
B1: GST-tagged MtbXthA (enzyme)
chain: MPDGTIDGGHPQRPASPRLRSPLLRLATWNVNSIRTRLDRVLDWLGRADVDVLAMQETKCPDGQFPALPLFELGYDVAHVGFDQWNGVAIASRVGLDDVRVGFDGQPSWSGKPEVAATTEARALGATCGGIRVWSLYVPNGRALDDPHYTYKLDWLAALRDTAEGWLRDDPAAPIALMGDWNIAPTDDDVWSTEFFAGCTHVSEPERKAFNAIVDAQFTDVVRPFTPGPGVYTYWDYTQLRFPKKQGMRIDFILGSPALAARVMDAQIVREERKGKAPSDHAPVLVDLHAG
B2: BRCT domain of MtbLigA, His-tagged (domain or fragment)
chain: SVPRTLAGLTIVVTGSLTGFSRDDAKEAIVARGGKAAGSVSKKTNYVVAGDSPGSKYDKAVELGVPILDEDGFRRLLADGPASRT

Experiment [1] deals with Full-length His-tagged MtbLigA (M. tuberculosis, UniProt P9WNV1 1-691). Briefly: SPR.
Experiment [2] addresses B2. The experiment is described as follows: ITC.
In experiment [3] the target is B1. Briefly: SPR.

B1: binding in experiment [1] was put at a Kd of 0.0677 µM.
As to DGQPSWSGKP [DGQ peptide (MtbXthA 104-113)], the Kd in experiment [2] is 2.47 µM.
As to YDVAHVGFD [YDV peptide (MtbXthA 75-83)], in experiment [2], the dissociation constant (Kd) worked out at 88.5 µM.
With B2, the affinity in experiment [3], expressed as Kd, was 0.0714 µM. That is a double-digit nanomolar value.
